We go through 10 substances from patent US20060134087A1, “ITI-D1 Kunitz domain mutants as hNE inhibitors” (Dyax Corp., priority 1988, published 2006).

Several values for one entry are separate records, joined by “and”; a condition that tells them apart may be missing. Equal entries are not always repeated.

The target of this test is T1, agarose-immobilized hNE beads (Homo sapiens, UniProt P08246).
T1 sequence (P08246 30-267): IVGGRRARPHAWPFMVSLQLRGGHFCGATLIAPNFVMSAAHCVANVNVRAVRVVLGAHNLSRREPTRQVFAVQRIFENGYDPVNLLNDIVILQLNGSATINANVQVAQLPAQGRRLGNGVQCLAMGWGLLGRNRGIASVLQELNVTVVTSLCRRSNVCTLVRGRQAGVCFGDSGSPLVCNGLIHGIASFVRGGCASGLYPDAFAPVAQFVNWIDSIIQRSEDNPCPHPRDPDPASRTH
Kind of test: pH fractionation of display phage on agarose-immobilized hNE beads. Further details: Fraction of Input recovered at pH7.0: scale not given here. The class given is binding. To be noted: for Recovery Total: total fraction of input; for fraction of input: abbreviated fractionation. The source says:
For the purpose of simultaneously assessing the affinity of a large number of different BPTI and ITI-D1 muteins, DNA sequences encoding the BPTI or ITI-D1 was incorporated into the genome of the bacteriophage M13. […] Alterations in the KuDom amino acid sequence were introduced. Each pure population of phage displaying a particular KuDom was characterized with regard to its interactions with immobilized hNE or hCG. Based on comparison to the pH elution profiles of phage displaying other KuDoms of known affinities for the particular protease, mutant KuDoms having high affinity for the target proteases were identified. Subsequently, the sequences of these mutant KuDoms were determined (typically by sequencing the corresponding DNA sequence).
To test if phage displaying the ITI-D1::III fusion protein interact strongly with the proteases human neutrophil elastase (hNE), aliquots of display phage were incubated with agarose-immobilized hNE beads (“hNE beads”). The beads were washed and bound phage eluted by pH fractionation as described in U.S. Pat. No. 5,223,409. The pHs used in the step gradient were 7.0, 6.0, 5.5, 5.0, 4.5, 4.0, 3.5, 3.0, 2.5, and 2.0. Following elution and neutralization, the various input, wash, and pH elution fractions were titered. Phage displaying ITI-D1 were compared to phage that display EpiNE-7.
To test if ITI-D1E7-display phage bind hNE beads, pH elution profiles were measured. Aliquots of EpiNE-7, MA-ITI-D1, and MA-ITI-D1E7 display phage were incubated with hNE beads for three hours at room temperature (RT). The beads were washed and phage were eluted as described in U.S. Pat. No. 5,223,409, except that only three pH elutions were performed. […] The pH elution profile of EpiNE-7 display phage is as described. MA-ITI-D1E7 phage show a broad elution maximum around pH 5. The total fraction of MA-ITI-D1E7 phage obtained on pH elution from hNE beads was about 40-fold less than that obtained using EpiNE-7 display phage.
We characterized the binding properties to hNE-beads of MA-BITI and MA-BITI-E7 display phage using the extended pH fractionation procedure described in U.S. Pat. No. 5,223,409.
The binding capacity of hNE-beads for display phage varies among preparations of beads and with age for each individual preparation of beads. Thus, it is difficult to directly compare absolute yields of phage from elutions performed at different times. For example, the fraction of MA-EpiNE7 display phage recovered from hNE-beads varies two-fold among the experiments shown in Tables 14, 16, and 17. However, the shapes of the pH elution profiles are similar. It is possible to correct somewhat for variations in binding capacity of hNE-beads by normalizing display phage yields to the total yield of MA-EpiNE7 phage recovered from the beads in a concurrent elution. When the data shown in Tables 14, 16, and 17 are so normalized, the recoveries of display phage, relative to recovered MA-EpiNE7, are shown in Table 3.
ITI-D1 derivative BITI-E7-1222 is BITI-E7 with the alteration A11T. ITI-D1 derivative BITI-E7-141 is BITI-E7 with the alterations E31Q and Q34V; phage that display the presence of these proteins are MA-BITI-E7-1222 and MA-BITI-E7-141. We determined the binding properties to hNE-beads of MA-BITI-E7-1222 and MA-BITI-E7-141 display phage using the extended pH fractionation protocol described previously. The results are in Tables 18 (for MA-BITI-E7 and MA-BITI-E7-1222) and 19 (for MA-EpiNE7 and MA-BITI-E7-141). The pH elution profiles for the MA-BITI-E7 and MA-BITI-E7-1222 phage are almost identical.
Total pfu applied to the beads are in column two. The fractions of this input pfu recovered in each pH fraction of the abbreviated pH elution protocol (pH 7.0, pH 3.5, and pH 2.0) are in the next three columns. […]

The mark [1] stands for this setting: AE abbreviated pH elution protocol.
The mark [2] stands for this setting: EE extended pH elution protocol.
[3] abbreviates: EE, sum of pH 3.0, 2.5, 2.0 samples.
The mark [4] stands for this setting: EE, sum of pH 6.0 to pH 3.5 samples.
Where [5] appears, read: relative to parental MA-BITI-E7-141.
[6] abbreviates: SUM of all pH elution fractions.
[7] abbreviates: extended protocol, final TBS-TWEEN wash.
Setting [8] is: extended protocol, pH 3.0 fraction.
Setting [9] is: extended protocol, pH 4.0 fraction.
The mark [10] stands for this setting: extended protocol, pH 4.5 fraction.
[11] abbreviates: extended protocol, pH 5.0 fraction.
[12] abbreviates: extended protocol, pH 5.5 fraction.
Where [13] appears, read: extended protocol, pH 7.0 fraction.

As for “BITI-E7: ITI-D1E7 with K1R, E2P and S4F; SEQ ID NO 142 (RPDFCQLGYSAGPCVAMFPRYFYNGTSMACETFQYGGCMGNGNNFVTEKDCLQTCRGA; BITI-E7)”, the “fold greater affinity for hNE than ITI-D1E7” value was “ten-fold”.

For the substance “MUTP1: ITI-D1 derivative asserting I15, G16, S19; SEQ ID NO 024 (RPDFCQLGYSAGPCIGMFSRYFYNGTSMACETFQYGGCMGNGNNFVTEKDCLQTCRGA; MUTP1)”, under setting [1], the “Fraction of Input recovered at pH2.0” value is 1.2 ×10^−4, the “Fraction of Input recovered at pH3.5” value is 9.2 ×10^−4 and the “Fraction of Input recovered at pH7.0” value is reported as 1.8. In addition, for the setting “AE”, the “Recovery Total” value is reported as 12.0 ×10^−4.

As for “MUTT26A: BITI-E7-141 with T26A; SEQ ID NO 018 (RPDFCQLGYSAGPCVAMFPRYFYNGASMACQTFVYGGCMGNGNNFVTEKDCLQTCRGA; MUTT26A)”, the “Fraction of Input recovered at pH7.0” value under setting [2] is recorded as 2.5. Under setting [3], the “Fraction of Input recovered at pH2.0” value is recorded as 3.3 ×10^−4. Moreover, the “Fraction of Input recovered at pH3.5” value under setting [4] is given as 19.0 ×10^−4. Also, the “Recovery Total” value (EE) is given as 25.0 ×10^−4. Moreover, under “range of the affinity class”, the “Fraction of Input bound” value is listed as above 0.1% and the “pH Elution Maximum” value is recorded as “≦4.0 pH”. For the same substance, the “effect of change on binding of display phage to hNE-beads” value under setting [5] is given as “little effect”.

In the case of “BITI-E7-1222: BITI-E7 with the alteration A11T; SEQ ID NO 143 (RPDFCQLGYSTGPCVAMFPRYFYNGTSMACETFQYGGCMGNGNNFVTEKDCLQTCRGA; BITI-E7-1222)”, the “Fraction of Input recovered at pH7.0” value under setting [2] came out at 0.72. Further, the “Fraction of Input recovered at pH2.0” value under setting [3] is given as 0.64 ×10^−4. Also, under setting [4], the “Fraction of Input recovered at pH3.5” value is listed as 4.0 ×10^−4. Moreover, where the note is “EE”, the “Recovery Total” value is listed as 5.4 ×10^−4.

Take “MUTQE: BITI-E7-141 with Q31E; SEQ ID NO 019 (RPDFCQLGYSAGPCVAMFPRYFYNGTSMACETFVYGGCMGNGNNFVTEKDCLQTCRGA; MUTQE)”: under setting [1], the “Fraction of Input recovered at pH2.0” value is reported as 5.3 ×10^−4, the “Fraction of Input recovered at pH3.5” value is given as 16. ×10^−4 and the “Fraction of Input recovered at pH7.0” value is on record as 1.2. Also, for the setting “AE”, the “Recovery Total” value is 22.0 ×10^−4. Moreover, where the note is “range of the affinity class”, the “Fraction of Input bound” value is listed as above 0.1% and the “pH Elution Maximum” value is reported as “≦4.0 pH”. Besides, under setting [5], the “effect of change on binding of display phage to hNE-beads” value was “little effect”.

For the substance “BITI-E7-141: BITI-E7 with the alterations E31Q and Q34V; SEQ ID NO 017 (RPDFCQLGYSAGPCVAMFPRYFYNGTSMACQTFVYGGCMGNGNNFVTEKDCLQTCRGA; BITI-E7-141)”, the “fold greater affinity for hNE than BITI-E7” value is given as “approximately 100 fold”. Under setting [1], the “Fraction of Input recovered at pH2.0” value is given as 5.4 ×10^−4, the “Fraction of Input recovered at pH3.5” value is 18.0 ×10^−4 and the “Fraction of Input recovered at pH7.0” value is reported as 2.2. The “Recovery Total” value (AE) is 26.0 ×10^−4. Moreover, the “Fraction of Input recovered at pH7.0” value under setting [2] turned out to be 2.1. Moreover, the “Fraction of Input recovered at pH2.0” value under setting [3] was 3.2 ×10^−4. The “Fraction of Input recovered at pH3.5” value under setting [4] is given as 21. ×10^−4. Moreover, the “Recovery Total” value (EE) is 26.0 ×10^−4. Under “range of the affinity class”, the “Fraction of Input bound” value is above 0.1% and the “pH Elution Maximum” value is on record as “≦4.0 pH”.

On to “MUT1619: BITI-E7-141 with ITI-D1 residues restored at 16 and 19; SEQ ID NO 020 (RPDFCQLGYSAGPCVGMFSRYFYNGTSMACQTFVYGGCMGNGNNFVTEKDCLQTCRGA; MUT1619)”, for which the “Fraction of Input recovered at pH7.0” value under setting [2] came to 0.82. The “Fraction of Input recovered at pH2.0” value under setting [3] is recorded as 0.84 ×10^−4. Moreover, the “Fraction of Input recovered at pH3.5” value under setting [4] was 9.9 ×10^−4. Besides, the “Recovery Total” value (EE) is given as 12.0 ×10^−4. Further, where the note is “range of the affinity class”, the “Fraction of Input bound” value is above 0.1% and the “pH Elution Maximum” value is recorded as “≦4.0 pH”.

For “AMINO1: ITI-D1 derivative carrying K1-E2, SEQ ID NO 022 (KEDFCQLGYSAGPCVAMFPRYFYNGTSMACETFQYGGCMGNGNNFVTEKDCLQTCRGA; AMINO1)”, under setting [2], the “Fraction of Input recovered at pH7.0” value came out at 0.24. Further, the “Fraction of Input recovered at pH2.0” value under setting [3] is 0.35 ×10^−4. Besides, the “Fraction of Input recovered at pH3.5” value under setting [4] is 2.3 ×10^−4. The “Recovery Total” value (EE) is given as 2.9 ×10^−4. Also, the “reduction of display phage binding to hNE-beads” value under setting [5] was “at least ten fold”.

For the substance “EpiNE7: BPTI-derived Kunitz domain, SEQ ID NO 009; in Tables 14-16 the phage displaying it”, the “fold greater affinity for hNE than ITI-D1E7” value was “roughly 1000 fold”. Under setting [2], the “Fraction of Input recovered at pH7.0” value is recorded as 0.44. Also, the “Fraction of Input recovered at pH2.0” value under setting [3] was 2.2 ×10^−4. Besides, the “Fraction of Input recovered at pH3.5” value under setting [4] was 6.4 ×10^−4. Besides, where the note is “EE”, the “Recovery Total” value is 9.0 ×10^−4. Under setting [6], the pfu was 6.4 · 10^6 pfu and 7.6 · 10^6 pfu; the “pfu/INPUT (fraction of input)” value was 3 · 10^−3 and 4.1 · 10^−3; the fraction of input is on record as 4.3 · 10^−3. For the same substance, the fraction of input (Wash) is 6 · 10^−5. Besides, the fraction of input (pH 2.0) is recorded as 1 · 10^−3. Further, the fraction of input (pH 3.5) is 3 · 10^−3. The fraction of input (pH 7.0) was 3 · 10^−4. The “total fraction of input phage eluted from hNE beads” value (all pH elution fractions) is “About 0.3%”. Also, where the note is “display phage on hNE beads”, the pH Elution Maximum is on record as around 4.0 pH. Moreover, under setting [7], the pfu is reported as 3.8 · 10^5 pfu and the “pfu/INPUT (fraction of input)” value was 1.2 · 10^−4. The pfu (extended protocol, pH 2.0 fraction) was 3.0 · 10^5 pfu and 2.9 · 10^5 pfu. Moreover, the pfu (extended protocol, pH 2.5 fraction) was 1.6 · 10^5 pfu and 2.8 · 10^5 pfu. Besides, under setting [8], the pfu was 6.6 · 10^5 pfu and 3.8 · 10^5 pfu; the “pfu/INPUT (fraction of input)” value is 2.0 · 10^−4 and 2.1 · 10^−4. In addition, under setting [9], the pfu was 1.6 · 10^6 pfu and 1.7 · 10^6 pfu; the “pfu/INPUT (fraction of input)” value was 4.8 · 10^−4 and 9.4 · 10^−4. Moreover, under setting [10], the pfu is 1.2 · 10^6 pfu and 1.1 · 10^6 pfu; the “pfu/INPUT (fraction of input)” value is 3.5 · 10^−4 and 6.1 · 10^−4. Under setting [11], the pfu is 9.5 · 10^5 pfu and 8.4 · 10^5 pfu; the “pfu/INPUT (fraction of input)” value was 2.9 · 10^−4 and 4.7 · 10^−4. Also, under setting [12], the pfu is 9.4 · 10^5 pfu and 7.8 · 10^5 pfu; the “pfu/INPUT (fraction of input)” value was 2.8 · 10^−4 and 4.3 · 10^−4. The “pfu/INPUT (fraction of input)” value (extended protocol, pH 6.0 fraction) was 4.1 · 10^−4 and 3.6 · 10^−4. Moreover, under setting [13], the pfu was 6.2 · 10^5 pfu and 5.2 · 10^5 pfu; the “pfu/INPUT (fraction of input)” value is 1.8 · 10^−4 and 2.9 · 10^−4.

As to “ITI-D1E7: ITI-D1 with EpiNE-7 sequence at positions 15-20, SEQ ID NO 021 (KEDSCQLGYSAGPCVAMFPRYFYNGTSMACETFQYGGCMGNGNNFVTEKDCLQTCRGA; ITI-D1E7)”, the “estimated affinity of free protein for hNE” value (estimated from pH elution profile of display phage) is reported as “in the nM range”.
